From article PMC3137622

Columns and labels:
[1] = target: monoclonal antibody 7C11 (anti-Bla g 2); test: ELISA dose-response; details: chain shown with the change; allergen concentration 100 ng/ml; parent: est. 1.8; read off a plot
[2] = target: monoclonal antibody 7C11 (anti-Bla g 2); test: competition ELISA; details: chain shown with the change, solid phase rBla g 2-N93Q, read off a plot
[3] = target: monoclonal antibody 4C3 (anti-Bla g 2); test: ELISA dose-response; details: chain shown with the change, read off a plot
monoclonal antibody 4C3 (anti-Bla g 2), sequence (chain, as listed by the source, chain 1 of 2): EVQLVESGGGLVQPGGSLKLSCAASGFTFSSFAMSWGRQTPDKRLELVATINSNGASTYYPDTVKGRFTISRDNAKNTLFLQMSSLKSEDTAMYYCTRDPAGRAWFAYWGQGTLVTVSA
monoclonal antibody 4C3 (anti-Bla g 2), sequence (chain, as listed by the source, chain 2 of 2): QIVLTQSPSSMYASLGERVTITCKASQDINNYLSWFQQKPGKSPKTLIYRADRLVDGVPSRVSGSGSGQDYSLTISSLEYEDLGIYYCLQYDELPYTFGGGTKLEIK

[4] = target: monoclonal antibody 4C3 (anti-Bla g 2); test: competition ELISA; details: chain shown with the change, solid phase rBla g 2-N93Q, read off a plot
[5] = competitor concentration 0.1 µg/ml, parent: est. 47
[6] = competitor concentration 1 µg/ml, parent: est. 5
[7] = allergen concentration 100 ng/ml, parent: est. 1.3
[8] = competitor concentration 0.1 µg/ml
[9] = competitor concentration 1 µg/ml
[10] = allergen concentration 100 ng/ml, parent: est. 1.5
[11] = competitor concentration 1 µg/ml, parent: est. 32
[12] = competitor concentration 10 µg/ml, parent: est. 5
[13] = allergen concentration 100 ng/ml, parent: est. 0.48
[14] = competitor concentration 100 µg/ml, parent: est. 1
[15] = allergen concentration about 400 ng/ml (highest point of the series), parent: est. 1.9
[16] = competitor concentration 0.1 µg/ml, parent: est. 82

monoclonal antibody 7C11 (anti-Bla g 2), sequence (chain, as listed by the source, chain 2 of 2, other chains not shown): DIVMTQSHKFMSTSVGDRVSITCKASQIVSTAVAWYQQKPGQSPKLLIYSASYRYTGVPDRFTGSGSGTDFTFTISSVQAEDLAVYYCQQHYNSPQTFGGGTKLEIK

B1: recombinant Bla g 2-N93Q R83A (protein)
chain: VPLYKLVHVFINTQYAGITKIGNQNFLTVFDSTSCNVVVASQECVGGACVCPNLQKYEKLKPKYISDGNVQVKFFDTGSAVGAGIEDSLTISQLTTSQQDIVLADELSQEVCILSADVVVGIAAPGCPNALKGKTVLENFVEENLIAPVFSIHHARFQDGEHFGEIIFGGSDWKYVDGEFTYVPLVGDDSWKFRLDGVKIGDTTVAPAGTQAIIDTSKAIIVGPKAYVNPINEAIGCVVEKTTTRRICKLDCSKIPSLPDVTFVINGRNFNISSQYYIQQNGNLCYSGFQPCGHSDHFFIGDFFVDHYYSEFNWENKTMGFGRSVESV
B1 was tested, and the response (Absorbance (405 nm)) [1] was 1.5, the other: Biotinylated mAb 7C11 bound to Bla g 2 (%) [2, 5] was 82% and the other: Biotinylated mAb 7C11 bound to Bla g 2 (%) [2, 6] was 13%.

B2: natural Bla g 2 N93Q (protein)
chain: VPLYKLVHVFINTQYAGITKIGNQNFLTVFDSTSCNVVVASQECVGGACVCPNLQKYEKLKPKYISDGNVQVKFFDTGSAVGRGIEDSLTISQLTTSQQDIVLADELSQEVCILSADVVVGIAAPGCPNALKGKTVLENFVEENLIAPVFSIHHARFQDGEHFGEIIFGGSDWKYVDGEFTYVPLVGDDSWKFRLDGVKIGDTTVAPAGTQAIIDTSKAIIVGPKAYVNPINEAIGCVVEKTTTRRICKLDCSKIPSLPDVTFVINGRNFNISSQYYIQQNGNLCYSGFQPCGHSDHFFIGDFFVDHYYSEFNWENKTMGFGRSVESV
In the case of B2, the response (Absorbance (405 nm)) [3, 7] is reported as 1.5, the other: Biotinylated mAb 4C3 bound to Bla g 2 (%) [4, 8] is reported as 82% and the other: Biotinylated mAb 4C3 bound to Bla g 2 (%) [4, 9] is reported as 32%.

B3: recombinant Bla g 2-N93Q E233A (protein)
chain: VPLYKLVHVFINTQYAGITKIGNQNFLTVFDSTSCNVVVASQECVGGACVCPNLQKYEKLKPKYISDGNVQVKFFDTGSAVGRGIEDSLTISQLTTSQQDIVLADELSQEVCILSADVVVGIAAPGCPNALKGKTVLENFVEENLIAPVFSIHHARFQDGEHFGEIIFGGSDWKYVDGEFTYVPLVGDDSWKFRLDGVKIGDTTVAPAGTQAIIDTSKAIIVGPKAYVNPINAAIGCVVEKTTTRRICKLDCSKIPSLPDVTFVINGRNFNISSQYYIQQNGNLCYSGFQPCGHSDHFFIGDFFVDHYYSEFNWENKTMGFGRSVESV
B3 gave a response (Absorbance (405 nm)) [3, 10] of 1, an other: Biotinylated mAb 4C3 bound to Bla g 2 (%) [4, 11] of 58% and an other: Biotinylated mAb 4C3 bound to Bla g 2 (%) [4, 12] of 15%.

B4: recombinant Bla g 2-N93Q E86A (protein)
chain: VPLYKLVHVFINTQYAGITKIGNQNFLTVFDSTSCNVVVASQECVGGACVCPNLQKYEKLKPKYISDGNVQVKFFDTGSAVGRGIADSLTISQLTTSQQDIVLADELSQEVCILSADVVVGIAAPGCPNALKGKTVLENFVEENLIAPVFSIHHARFQDGEHFGEIIFGGSDWKYVDGEFTYVPLVGDDSWKFRLDGVKIGDTTVAPAGTQAIIDTSKAIIVGPKAYVNPINEAIGCVVEKTTTRRICKLDCSKIPSLPDVTFVINGRNFNISSQYYIQQNGNLCYSGFQPCGHSDHFFIGDFFVDHYYSEFNWENKTMGFGRSVESV
B4 gave a response (Absorbance (405 nm)) [1] of 1.5, an other: Biotinylated mAb 7C11 bound to Bla g 2 (%) [2, 5] of 82% and an other: Biotinylated mAb 7C11 bound to Bla g 2 (%) [2, 6] of 18%.

B5: recombinant Bla g 2-N268Q E233R; I199W (protein)
chain: VPLYKLVHVFINTQYAGITKIGNQNFLTVFDSTSCNVVVASQECVGGACVCPNLQKYEKLKPKYISDGNVQVKFFDTGSAVGRGIEDSLTISNLTTSQQDIVLADELSQEVCILSADVVVGIAAPGCPNALKGKTVLENFVEENLIAPVFSIHHARFQDGEHFGEIIFGGSDWKYVDGEFTYVPLVGDDSWKFRLDGVKWGDTTVAPAGTQAIIDTSKAIIVGPKAYVNPINRAIGCVVEKTTTRRICKLDCSKIPSLPDVTFVINGRNFQISSQYYIQQNGNLCYSGFQPCGHSDHFFIGDFFVDHYYSEFNWENKTMGFGRSVESV
B5 was tested, and the response (Absorbance (405 nm)) [3, 13] was 0.2, the response (Absorbance (405 nm)) ([3]; allergen concentration about 400 ng/ml (highest point of the series), parent: est. 1.1) was 0.4 and the other: Biotinylated mAb 4C3 bound to Bla g 2 (%) ([4]; competitor concentration 0.1 µg/ml, parent: est. 88) was 93%. The other: Biotinylated mAb 4C3 bound to Bla g 2 (%) ([4]; competitor concentration 1 µg/ml, parent: est. 46) was 82%, the other: Biotinylated mAb 4C3 bound to Bla g 2 (%) ([4]; competitor concentration 10 µg/ml, parent: est. 7) was 78% and the other: Biotinylated mAb 4C3 bound to Bla g 2 (%) [4, 14] was 62%.

B6: recombinant Bla g 2-N93Q K251A (protein)
chain: VPLYKLVHVFINTQYAGITKIGNQNFLTVFDSTSCNVVVASQECVGGACVCPNLQKYEKLKPKYISDGNVQVKFFDTGSAVGRGIEDSLTISQLTTSQQDIVLADELSQEVCILSADVVVGIAAPGCPNALKGKTVLENFVEENLIAPVFSIHHARFQDGEHFGEIIFGGSDWKYVDGEFTYVPLVGDDSWKFRLDGVKIGDTTVAPAGTQAIIDTSKAIIVGPKAYVNPINEAIGCVVEKTTTRRICKLDCSAIPSLPDVTFVINGRNFNISSQYYIQQNGNLCYSGFQPCGHSDHFFIGDFFVDHYYSEFNWENKTMGFGRSVESV
In the case of B6, the response (Absorbance (405 nm)) [3, 10] is reported as 0.14, the response (Absorbance (405 nm)) [3, 15] is reported as 0.27 and the other: Biotinylated mAb 4C3 bound to Bla g 2 (%) [4, 16] is reported as 100%. It also gave an other: Biotinylated mAb 4C3 bound to Bla g 2 (%) [4, 11] of 100%, an other: Biotinylated mAb 4C3 bound to Bla g 2 (%) [4, 12] of 93% and an other: Biotinylated mAb 4C3 bound to Bla g 2 (%) [4, 14] of 60%.

B7: recombinant Bla g 2-N93Q E233R; I199W (protein)
chain: VPLYKLVHVFINTQYAGITKIGNQNFLTVFDSTSCNVVVASQECVGGACVCPNLQKYEKLKPKYISDGNVQVKFFDTGSAVGRGIEDSLTISQLTTSQQDIVLADELSQEVCILSADVVVGIAAPGCPNALKGKTVLENFVEENLIAPVFSIHHARFQDGEHFGEIIFGGSDWKYVDGEFTYVPLVGDDSWKFRLDGVKWGDTTVAPAGTQAIIDTSKAIIVGPKAYVNPINRAIGCVVEKTTTRRICKLDCSKIPSLPDVTFVINGRNFNISSQYYIQQNGNLCYSGFQPCGHSDHFFIGDFFVDHYYSEFNWENKTMGFGRSVESV
With B7 the response (Absorbance (405 nm)) [3, 10] was 0.14, the response (Absorbance (405 nm)) [3, 15] was 0.27 and the other: Biotinylated mAb 4C3 bound to Bla g 2 (%) [4, 16] was 100%. It also gave an other: Biotinylated mAb 4C3 bound to Bla g 2 (%) [4, 11] of 100%, an other: Biotinylated mAb 4C3 bound to Bla g 2 (%) [4, 12] of 69% and an other: Biotinylated mAb 4C3 bound to Bla g 2 (%) [4, 14] of 22%.

B8: natural Bla g 2 N268Q (protein)
chain: VPLYKLVHVFINTQYAGITKIGNQNFLTVFDSTSCNVVVASQECVGGACVCPNLQKYEKLKPKYISDGNVQVKFFDTGSAVGRGIEDSLTISNLTTSQQDIVLADELSQEVCILSADVVVGIAAPGCPNALKGKTVLENFVEENLIAPVFSIHHARFQDGEHFGEIIFGGSDWKYVDGEFTYVPLVGDDSWKFRLDGVKIGDTTVAPAGTQAIIDTSKAIIVGPKAYVNPINEAIGCVVEKTTTRRICKLDCSKIPSLPDVTFVINGRNFQISSQYYIQQNGNLCYSGFQPCGHSDHFFIGDFFVDHYYSEFNWENKTMGFGRSVESV
B8 showed a response (Absorbance (405 nm)) [3, 7] of 0.48, an other: Biotinylated mAb 4C3 bound to Bla g 2 (%) [4, 8] of 88% and an other: Biotinylated mAb 4C3 bound to Bla g 2 (%) [4, 9] of 46%. The other: Biotinylated mAb 4C3 bound to Bla g 2 (%) ([4]; competitor concentration 10 µg/ml) was 7%.

B9: recombinant Bla g 2-N93Q E233R (protein)
chain: VPLYKLVHVFINTQYAGITKIGNQNFLTVFDSTSCNVVVASQECVGGACVCPNLQKYEKLKPKYISDGNVQVKFFDTGSAVGRGIEDSLTISQLTTSQQDIVLADELSQEVCILSADVVVGIAAPGCPNALKGKTVLENFVEENLIAPVFSIHHARFQDGEHFGEIIFGGSDWKYVDGEFTYVPLVGDDSWKFRLDGVKIGDTTVAPAGTQAIIDTSKAIIVGPKAYVNPINRAIGCVVEKTTTRRICKLDCSKIPSLPDVTFVINGRNFNISSQYYIQQNGNLCYSGFQPCGHSDHFFIGDFFVDHYYSEFNWENKTMGFGRSVESV
Binder B9 has a response (Absorbance (405 nm)) [3, 10] of 1.7 and an other: Biotinylated mAb 4C3 bound to Bla g 2 (%) [4, 16] of 72%.

B10: recombinant Bla g 2-N93Q D248A (protein)
chain: VPLYKLVHVFINTQYAGITKIGNQNFLTVFDSTSCNVVVASQECVGGACVCPNLQKYEKLKPKYISDGNVQVKFFDTGSAVGRGIEDSLTISQLTTSQQDIVLADELSQEVCILSADVVVGIAAPGCPNALKGKTVLENFVEENLIAPVFSIHHARFQDGEHFGEIIFGGSDWKYVDGEFTYVPLVGDDSWKFRLDGVKIGDTTVAPAGTQAIIDTSKAIIVGPKAYVNPINEAIGCVVEKTTTRRICKLACSKIPSLPDVTFVINGRNFNISSQYYIQQNGNLCYSGFQPCGHSDHFFIGDFFVDHYYSEFNWENKTMGFGRSVESV
For B10, the response (Absorbance (405 nm)) [3, 10] was 1.8, the other: Biotinylated mAb 4C3 bound to Bla g 2 (%) [4, 16] was 48% and the other: Biotinylated mAb 4C3 bound to Bla g 2 (%) [4, 11] was 7%.

B11: recombinant Bla g 2-N268Q E233R (protein)
chain: VPLYKLVHVFINTQYAGITKIGNQNFLTVFDSTSCNVVVASQECVGGACVCPNLQKYEKLKPKYISDGNVQVKFFDTGSAVGRGIEDSLTISNLTTSQQDIVLADELSQEVCILSADVVVGIAAPGCPNALKGKTVLENFVEENLIAPVFSIHHARFQDGEHFGEIIFGGSDWKYVDGEFTYVPLVGDDSWKFRLDGVKIGDTTVAPAGTQAIIDTSKAIIVGPKAYVNPINRAIGCVVEKTTTRRICKLDCSKIPSLPDVTFVINGRNFQISSQYYIQQNGNLCYSGFQPCGHSDHFFIGDFFVDHYYSEFNWENKTMGFGRSVESV
B11 was tested, and the response (Absorbance (405 nm)) [3, 13] was 1.2.
